According to the RNAGym collection of RNA variant scans (doi:10.7554/elife.80360):

B1: CPEB3 Ribozyme (parent)
chain: GGGGGCCACAGCAGAAGCGUUCACGUCGCGGCCCCUGUCAGAUUCUGGUGAAUCUGCGAAUUCUGCUGU

Variants of: B1
Assay: self-cleavage, relative activity (ratio to wild type); higher = more cleavage; co-transcriptional

Variant | self-cleavage
GGGGGCCACAGGAGAAGCGUUCACGUCGCGGCCCCUGUCAGAUUCUGGUGAAUCUGCUAAUUCUGCUGU [C12G G58U] | 0.945
GGGGGCCACAGGAGAAGCGUUCACGUCGCGGCCCCUGUCAGAUUCUGGUGAAUCUGCAAAUUCUGCUGU [C12G G58A] | 0.852
GGGGGCCACAGGAGAAGCGUUCACGUCGCGGCCCCUGUCAGAUUCUGGUGAACCUGCGAAUUCUGCUGU [C12G U53C] | 0.408
GGGGGCCACAGGAGAAGCGUUCACGUCGCGGCCCCUGUCAGAUUCUGGUGAAGCUGCGAAUUCUGCUGU [C12G U53G] | 0.654
GGGGGCCACAGGAGAAGCGUUCACGUCGCGGCCCCUGUCAGAUUCUGGUGAAACUGCGAAUUCUGCUGU [C12G U53A] | 0.634
GGGGGCCACAGUAGAAGCGUUCACGUCGCGGCCCCUGUCAGAUUCUGGUGAAUCUGCGAGUUCUGCUGU [C12U A60G] | 0.716
GGGGGCCACAGUAGAAGCGUUCACGUCGCGGCCCCUGUCAGAUUCUGGUGAAUCUGCGACUUCUGCUGU [C12U A60C] | 0.299
GGGGGCCACAGUAGAAGCGUUGACGUCGCGGCCCCUGUCAGAUUCUGGUGAAUCUGCGAAUUCUGCUGU [C12U C22G] | 0.248
GGGGGCCACAGUAGAAGCGUUUACGUCGCGGCCCCUGUCAGAUUCUGGUGAAUCUGCGAAUUCUGCUGU [C12U C22U] | 0.16
GGGGGCCACAGGAGAAGCGUUCACGUCGCGGCCCCUGUCAGAUUCUGGUGAAUCUGCGAAUUCUGCUUU [C12G G68U] | 0.917
GGGGGCCACAGUAGAAGCGUUCACGUCGCGGCCCCUGUCAGAUUCUGGUGGAUCUGCGAAUUCUGCUGU [C12U A51G] | 0.996
GGGGGCCACAGUAGAAGCGUUCACGUCGCGGCCCCUGUCAGAUUCUGGUGUAUCUGCGAAUUCUGCUGU [C12U A51U] | 0.991
GGGGGCCACAGGAGAAGCGUUCACGUCGCGGCCCCUGUCAGACUCUGGUGAAUCUGCGAAUUCUGCUGU [C12G U43C] | 0.706
GGGGGCCACAGGAGAAGCGUUCACGUCGCGGCCCCUGUCAGAAUCUGGUGAAUCUGCGAAUUCUGCUGU [C12G U43A] | 0.519
GGGGGCCACAGGAGAAGCGUUCACGUCGCGGCCCCUGUCAGAUUCUGGUGAAUCUGCGAAUUCAGCUGU [C12G U64A] | 0.508
GGGGGCCACAGGAGAAGCGUUCACGUCGCGGCCCCUGGCAGAUUCUGGUGAAUCUGCGAAUUCUGCUGU [C12G U38G] | 0.126
GGGGGCCACAGGAGAAGCGUUCACGUCGCGGCCCCUGACAGAUUCUGGUGAAUCUGCGAAUUCUGCUGU [C12G U38A] | 0.739
GGGGGCCACAGGAGAAGCGUUCACGUCGCGGCCCCUGUCAGAUUCUGGUGAAUCUGCGAAUUCUCCUGU [C12G G65C] | 0.934
GGGGGCCACAGGAGAAGCGUUCACGUCGCGGCCCCUGUCAGAUUCUGGUGAAUCUGCGAAUUCUACUGU [C12G G65A] | 0.932
GGGGGCCACAGGAGAAGCGUUCACGUCGCGGCCCCUGUCAGAUUCUGGUGAAUCUGCGAAUUCUUCUGU [C12G G65U] | 0.952
GGGGGCCACAGUAGAAGCGUUCACGUCGCGGCCCCUGUCAGGUUCUGGUGAAUCUGCGAAUUCUGCUGU [C12U A42G] | 0.863
GGGGGCCACAGUAGAAGCGUUCACGUCGCGGCCCCUGUCAGUUUCUGGUGAAUCUGCGAAUUCUGCUGU [C12U A42U] | 0.91
GGGGGCCACAGUAGAAGCGUUCACGUCGCGGCCCCUGUCAGCUUCUGGUGAAUCUGCGAAUUCUGCUGU [C12U A42C] | 0.885
GGGGGCCACAGUAGAAGCGUUCACGUCGCGGCCCCUGUCCGAUUCUGGUGAAUCUGCGAAUUCUGCUGU [C12U A40C] | 0.358
GGGGGCCACAGUAGAAGCGUUCACGUCGCGGCCCCUGUCGGAUUCUGGUGAAUCUGCGAAUUCUGCUGU [C12U A40G] | 0.902
GGGGGCCACAGGAGAAGCGUUCACGUCGCGGCCCCUGUCAGAUUCUGUUGAAUCUGCGAAUUCUGCUGU [C12G G48U] | 0.925

Variant | self-cleavage
GGGGGCCACAGGAGAAGCGUUCACGUCGCGGCCCCUGUCAGAUUCUGGUGAAUCUGCGAAUUCUGCUGG [C12G U69G] | 1.04
GGGGGCCACAGGAGAAGCGUUCACGUCGCGGCCCCUGUCAGAUUCUGGUGAAUCUGCGAAUUCUGCUGA [C12G U69A] | 0.881
GGGGGCCACAGUAGUAGCGUUCACGUCGCGGCCCCUGUCAGAUUCUGGUGAAUCUGCGAAUUCUGCUGU [C12U A15U] | 0.502
GGGGGCCACAGUAGGAGCGUUCACGUCGCGGCCCCUGUCAGAUUCUGGUGAAUCUGCGAAUUCUGCUGU [C12U A15G] | 0.999
GGGGGCCACAGGAGAAGCGUUCACGUCGCGGCCCCUGUCAGAUUCUGGUGAAUCGGCGAAUUCUGCUGU [C12G U55G] | 0.284
GGGGGCCACAGGAGAAGCGUUCACGUCGCGGCCCCUGUCAGAUUCUGGUGAAUCAGCGAAUUCUGCUGU [C12G U55A] | 0.403
GGGGGCCACAGGAGAAGCGUUCACGUCGCGGCCCCUGUCAGAUUCUGGUGAAUCCGCGAAUUCUGCUGU [C12G U55C] | 0.558
GGGGGCCACAGUAGAAGGGUUCACGUCGCGGCCCCUGUCAGAUUCUGGUGAAUCUGCGAAUUCUGCUGU [C12U C18G] | 0.218
GGGGGCCACAGUAGAAGAGUUCACGUCGCGGCCCCUGUCAGAUUCUGGUGAAUCUGCGAAUUCUGCUGU [C12U C18A] | 0.0961
GGGGGCCACAGUAGAAGUGUUCACGUCGCGGCCCCUGUCAGAUUCUGGUGAAUCUGCGAAUUCUGCUGU [C12U C18U] | 0.6
GGGGGCCACAGUAGAAGCGUUCACGUCGCGGCCCCUGUCAGAUUCUGGUGAAUCUGCGUAUUCUGCUGU [C12U A59U] | 0.822
GGGGGCCACAGUAGAAGCGUUCACGUCGCGGCCCCUGUCAGAUUCUGGUGAAUCUGCGGAUUCUGCUGU [C12U A59G] | 0.968
GGGGGCCACAGUAGAAGCGUUCACGUCGCGGCCCCUGUCAGAUUCUGGUGAAUCUGCGCAUUCUGCUGU [C12U A59C] | 0.623
GGGGGCCACAGUAGAAGCGUUCUCGUCGCGGCCCCUGUCAGAUUCUGGUGAAUCUGCGAAUUCUGCUGU [C12U A23U] | 0.963
GGGGGCCACAGUAGAAGCGUUCGCGUCGCGGCCCCUGUCAGAUUCUGGUGAAUCUGCGAAUUCUGCUGU [C12U A23G] | 0.946
GGGGGCCACAGGAGAAGCGUUCACGUCGCGGCCCCUGUCAGAUGCUGGUGAAUCUGCGAAUUCUGCUGU [C12G U44G] | 0.868
GGGGGCCACAGGAGAAGCGUUCACGUCGCGGCCCCUGUCAGAUCCUGGUGAAUCUGCGAAUUCUGCUGU [C12G U44C] | 0.488
GGGGGCCACAGGAGAAGCGUUCACGUCGCGGCCCCUGUCAGAUUCUGGUGAAUCUCCGAAUUCUGCUGU [C12G G56C] | 0.345
GGGGGCCACAGUAGAAGCGUUCACGUAGCGGCCCCUGUCAGAUUCUGGUGAAUCUGCGAAUUCUGCUGU [C12U C27A] | 0.419
GGGGGCCACAGUAGAAGCGUUCACGUUGCGGCCCCUGUCAGAUUCUGGUGAAUCUGCGAAUUCUGCUGU [C12U C27U] | 0.297
GGGGGCCACAGGAGAAGCGUUCACGUCGCGGCCCCUGUCAGAUUCUGGGGAAUCUGCGAAUUCUGCUGU [C12G U49G] | 0.857
GGGGGCCACAGGAGAAGCGUUCACGCCGCGGCCCCUGUCAGAUUCUGGUGAAUCUGCGAAUUCUGCUGU [C12G U26C] | 0.74
GGGGGCCACAGGAGAAGCGUUCACGGCGCGGCCCCUGUCAGAUUCUGGUGAAUCUGCGAAUUCUGCUGU [C12G U26G] | 0.729
GGGGGCCACAGGAGAAGCGUUCACGACGCGGCCCCUGUCAGAUUCUGGUGAAUCUGCGAAUUCUGCUGU [C12G U26A] | 0.695
GGGGGCCACAGGAGAAGCGUACACGUCGCGGCCCCUGUCAGAUUCUGGUGAAUCUGCGAAUUCUGCUGU [C12G U21A] | 0.845
GGGGGCCACAGGAGAAGCGUGCACGUCGCGGCCCCUGUCAGAUUCUGGUGAAUCUGCGAAUUCUGCUGU [C12G U21G] | 0.364

Variant | self-cleavage
GGGGGCCACAGUUGAAGCGUUCACGUCGCGGCCCCUGUCAGAUUCUGGUGAAUCUGCGAAUUCUGCUGU [C12U A13U] | 0.583
GGGGGCCACAGUGGAAGCGUUCACGUCGCGGCCCCUGUCAGAUUCUGGUGAAUCUGCGAAUUCUGCUGU [C12U A13G] | 0.793
GGGGGCCACAGUCGAAGCGUUCACGUCGCGGCCCCUGUCAGAUUCUGGUGAAUCUGCGAAUUCUGCUGU [C12U A13C] | 0.629
GGGGGCCACAGGAGAAGCGUUCACGUCGCGGCCCCUGUCAGAUUCUGGUCAAUCUGCGAAUUCUGCUGU [C12G G50C] | 0.75
GGGGGCCACAGGAGAAGCGUUCACGUCGCGGCCCCUGUCAGAUUCUGGUUAAUCUGCGAAUUCUGCUGU [C12G G50U] | 0.84
GGGGGCCACAGGAGAAGCGUUCACGUCGCGGCCCCUGUCAGAUUCUGGUAAAUCUGCGAAUUCUGCUGU [C12G G50A] | 0.917
GGGGGCCACAGUAGAAGCGUUCACGUCGCGGCCCCUGUCAGAUUCUGGUGACUCUGCGAAUUCUGCUGU [C12U A52C] | 0.903
GGGGGCCACAGUAGAAGCGUUCACGUCGCGGCCCCUGUCAGAUUCUGGUGAGUCUGCGAAUUCUGCUGU [C12U A52G] | 1.01
GGGGGCCACAGGAGAAGCGUUCACGUCGCGGCCCCUGUCAGAUUCUGGUGAAUCUGCGAAUUCUGCGGU [C12G U67G] | 0.797
GGGGGCCACAGGAGAAGCGUUCACGUCGCGGCCCCUGUCAGAUUCUGGUGAAUCUGCGAAUUCUGCAGU [C12G U67A] | 0.8
GGGGGCCACAGGAGAAGCGGUCACGUCGCGGCCCCUGUCAGAUUCUGGUGAAUCUGCGAAUUCUGCUGU [C12G U20G] | 0.125
GGGGGCCACAGGAGAAGCGAUCACGUCGCGGCCCCUGUCAGAUUCUGGUGAAUCUGCGAAUUCUGCUGU [C12G U20A] | 0.228
GGGGGCCACAGGAGAAGCGUUCACGUCGCGGCCCCAGUCAGAUUCUGGUGAAUCUGCGAAUUCUGCUGU [C12G U36A] | 0.228
GGGGGCCACAGGAGAAGCGUUCACGUCGCGGCCCCGGUCAGAUUCUGGUGAAUCUGCGAAUUCUGCUGU [C12G U36G] | 0.294
GGGGGCCACAGUAGAAGCGUUCACGUCGCGGACCCUGUCAGAUUCUGGUGAAUCUGCGAAUUCUGCUGU [C12U C32A] | 0.874
GGGGGCCACAGGAGAAGCGUUCACGUCGCGGCCCCUGUCAGAUUCAGGUGAAUCUGCGAAUUCUGCUGU [C12G U46A] | 0.91
GGGGGCCACAGGAGAAGCGUUCACGUCGCGGCCCCUGUCAGAUUCGGGUGAAUCUGCGAAUUCUGCUGU [C12G U46G] | 0.862
GGGGGCCACAGGAGAAGCGUUCACGUCGCGGCCCCUGUCAGAUUCCGGUGAAUCUGCGAAUUCUGCUGU [C12G U46C] | 0.832
GGGGGCCACAGUAGACGCGUUCACGUCGCGGCCCCUGUCAGAUUCUGGUGAAUCUGCGAAUUCUGCUGU [C12U A16C] | 0.134
GGGGGCCACAGUAGAGGCGUUCACGUCGCGGCCCCUGUCAGAUUCUGGUGAAUCUGCGAAUUCUGCUGU [C12U A16G] | 0.814
GGGGGCCACAGUAGAUGCGUUCACGUCGCGGCCCCUGUCAGAUUCUGGUGAAUCUGCGAAUUCUGCUGU [C12U A16U] | 0.655
GGGGGCCACAGGAGAAGCGUUCACGUCGCGGCCCCUGUCAGAUUCUGGUGAAUCUGCGAAUGCUGCUGU [C12G U62G] | 0.338
GGGGGCCACAGGAGAAGCGUUCACGUCGCGGCCCCUGUCAGAUUCUGGUGAAUCUGCGAAGUCUGCUGU [C12G U61G] | 0.592
GGGGGCCACAGGAGAAGCGUUCACGUCGCGGCCCCUGUCAGAUUCUGGUGAAUCUGCGAAAUCUGCUGU [C12G U61A] | 0.537
GGGGGCCACAGUAGAAGCGUUCACGUCGGGGCCCCUGUCAGAUUCUGGUGAAUCUGCGAAUUCUGCUGU [C12U C29G] | 0.317
GGGGGCCACAGUAGAAGCGUUCACGUCGUGGCCCCUGUCAGAUUCUGGUGAAUCUGCGAAUUCUGCUGU [C12U C29U] | 0.232
